Laboratory results taken from US20130053549A1 (UCB, published 2013).

T1: Ox40/mFc (UniProt P43489 29-214)
T1 construct: Bought fusion protein; also called Ox40/mFc (AXXORA 1588)
T1 sequence (looked up): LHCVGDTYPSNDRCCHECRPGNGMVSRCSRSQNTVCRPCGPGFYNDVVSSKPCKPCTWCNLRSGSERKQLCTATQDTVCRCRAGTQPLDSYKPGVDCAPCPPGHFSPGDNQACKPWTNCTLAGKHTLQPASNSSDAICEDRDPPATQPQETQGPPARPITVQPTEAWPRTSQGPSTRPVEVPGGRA

B1: A26Fab-(3xG4S)-645dsFv-(3xG4S)-652dsFv (other)
heavy: EVQLVESGGGLVQPGGSLRLSCAASGFTFTNYGIHWIRQAPGKGLEWVASISPSGGLTYYRDSVKGRFTISRDDAKNSPYLQMNSLRAEDTAVYYCATGGEGIFDYWGQGTLVTVSSASTKGPSVFPLAPSSKSTSGGTAALGCLVKDYFPEPVTVSWNSGALTSGVHTFPAVLQSSGLYSLSSVVTVPSSSLGTQTYICNVNHKPSNTKVDKKVEPKSCSGGGGSGGGGSGGGGSEVQLLESGGGLVQPGGSLRLSCAVSGIDLSNYAINWVRQAPGKCLEWIGIIWASGTTFYATWAKGRFTISRDSTTVYLQMNSLRAEDTAVYYCARTVPGYSTAPYFDLWGQGTLVTVSSGGGGSGGGGSGGGGSQVTLKESGPVLVKPTETLTLTCTVSGFSLTNYHVQWIRQPPGKCLEWLGVMWSDGDTSFNSVLKSRLTISRDTSKSQVVLTMTNMDPVDTATYYCARDGTIAAMDYFDYWGQGTLVTVSS
light: DIQMTQSPSSLSASVGDRVTITCRATQSIYNALAWYQQKPGKAPKLLIYNANTLHTGVPSRFSASGSGTDSTLTISSLQPEDFATYYCQQYYDYPLTFGGGTKVEIKRTVAAPSVFIFPPSDEQLKSGTASVVCLLNNFYPREAKVQWKVDNALQSGNSQESVTEQDSKDSTYSLSSTLTLSKADYEKHKVYACEVTHQGLSSPVTKSFNRGECSGGGGSGGGGSGGGGSDIVMTQSPSSVSASVGDRVTITCQSSPSVWSNFLSWYQQKPGKAPKLLIYEASKLTSGVPSRFKGSGSGTDFTLTISSLQPEDFATYYCGGGYSSISDTTFGCGTKVEIKGGGGSGGGGSGGGGSDIQMTQSPSSLSASVGDRVTITCLASEDISNYLAWYQQKPGKAPKLLIYHTSRLQDGVPSRFSGSGSGTDFTLTISSLQPEDFATYYCQQGYRFPLTFGCGTKVEIKR
notes: Trispecific Fab-Fv-Fv (OX40, HSA, IL13); terminal 652 Fv with a disulfide (+DS read as dsFv); HEK293 supernatant; also called A26-645-652+DS; A26Fab-645Fv-652/870Fv
B2: A26Fab-(3xG4S)-645dsFv-(3xG4S)-652Fv (other)
heavy: EVQLVESGGGLVQPGGSLRLSCAASGFTFTNYGIHWIRQAPGKGLEWVASISPSGGLTYYRDSVKGRFTISRDDAKNSPYLQMNSLRAEDTAVYYCATGGEGIFDYWGQGTLVTVSSASTKGPSVFPLAPSSKSTSGGTAALGCLVKDYFPEPVTVSWNSGALTSGVHTFPAVLQSSGLYSLSSVVTVPSSSLGTQTYICNVNHKPSNTKVDKKVEPKSCSGGGGSGGGGSGGGGSEVQLLESGGGLVQPGGSLRLSCAVSGIDLSNYAINWVRQAPGKCLEWIGIIWASGTTFYATWAKGRFTISRDSTTVYLQMNSLRAEDTAVYYCARTVPGYSTAPYFDLWGQGTLVTVSSGGGGSGGGGSGGGGSQVTLKESGPVLVKPTETLTLTCTVSGFSLTNYHVQWIRQPPGKALEWLGVMWSDGDTSFNSVLKSRLTISRDTSKSQVVLTMTNMDPVDTATYYCARDGTIAAMDYFDYWGQGTLVTVSS
light: DIQMTQSPSSLSASVGDRVTITCRATQSIYNALAWYQQKPGKAPKLLIYNANTLHTGVPSRFSASGSGTDSTLTISSLQPEDFATYYCQQYYDYPLTFGGGTKVEIKRTVAAPSVFIFPPSDEQLKSGTASVVCLLNNFYPREAKVQWKVDNALQSGNSQESVTEQDSKDSTYSLSSTLTLSKADYEKHKVYACEVTHQGLSSPVTKSFNRGECSGGGGSGGGGSGGGGSDIVMTQSPSSVSASVGDRVTITCQSSPSVWSNFLSWYQQKPGKAPKLLIYEASKLTSGVPSRFKGSGSGTDFTLTISSLQPEDFATYYCGGGYSSISDTTFGCGTKVEIKGGGGSGGGGSGGGGSDIQMTQSPSSLSASVGDRVTITCLASEDISNYLAWYQQKPGKAPKLLIYHTSRLQDGVPSRFSGSGSGTDFTLTISSLQPEDFATYYCQQGYRFPLTFGGGTKVEIK
notes: Trispecific Fab-Fv-Fv (OX40, HSA, IL13); terminal 652 Fv without a disulfide (-DS read as Fv); HEK293 supernatant; also called A26-645-652-DS; A26Fab-645Fv-652/870Fv
B3: A26Fab-(3xG4S)-645dsFv-(3xG4S)-870dsFv (other)
heavy: EVQLVESGGGLVQPGGSLRLSCAASGFTFTNYGIHWIRQAPGKGLEWVASISPSGGLTYYRDSVKGRFTISRDDAKNSPYLQMNSLRAEDTAVYYCATGGEGIFDYWGQGTLVTVSSASTKGPSVFPLAPSSKSTSGGTAALGCLVKDYFPEPVTVSWNSGALTSGVHTFPAVLQSSGLYSLSSVVTVPSSSLGTQTYICNVNHKPSNTKVDKKVEPKSCSGGGGSGGGGSGGGGSEVQLLESGGGLVQPGGSLRLSCAVSGIDLSNYAINWVRQAPGKCLEWIGIIWASGTTFYATWAKGRFTISRDSTTVYLQMNSLRAEDTAVYYCARTVPGYSTAPYFDLWGQGTLVTVSSGGGGSGGGGSGGGGSEVQLVESGGGLVQPGGSLRLSCAASGYVFTDYGMNWVRQAPGKCLEWMGWINTYIGEPIYADSVKGRFTFSLDTSKSTAYLQMNSLRAEDTAVYYCARGYRSYAMDYWGQGTLVTVSS
light: DIQMTQSPSSLSASVGDRVTITCRATQSIYNALAWYQQKPGKAPKLLIYNANTLHTGVPSRFSASGSGTDSTLTISSLQPEDFATYYCQQYYDYPLTFGGGTKVEIKRTVAAPSVFIFPPSDEQLKSGTASVVCLLNNFYPREAKVQWKVDNALQSGNSQESVTEQDSKDSTYSLSSTLTLSKADYEKHKVYACEVTHQGLSSPVTKSFNRGECSGGGGSGGGGSGGGGSDIVMTQSPSSVSASVGDRVTITCQSSPSVWSNFLSWYQQKPGKAPKLLIYEASKLTSGVPSRFKGSGSGTDFTLTISSLQPEDFATYYCGGGYSSISDTTFGCGTKVEIKGGGGSGGGGSGGGGSDIQMTQSPSSLSASVGDRVTITCKASQNVGTNVAWYQQKPGKAPKALIYSASFLYSGVPYRFSGSGSGTDFTLTISSLQPEDFATYYCQQYNIYPLTFGCGTKVEIKR
notes: Trispecific Fab-Fv-Fv (OX40, HSA, TNF); terminal 870 Fv with a disulfide (+DS read as dsFv); HEK293 supernatant; also called A26-645-870+DS; A26Fab-645Fv-652/870Fv
B4: A26Fab-(3xG4S)-645dsFv-(3xG4S)-870Fv (other)
heavy: EVQLVESGGGLVQPGGSLRLSCAASGFTFTNYGIHWIRQAPGKGLEWVASISPSGGLTYYRDSVKGRFTISRDDAKNSPYLQMNSLRAEDTAVYYCATGGEGIFDYWGQGTLVTVSSASTKGPSVFPLAPSSKSTSGGTAALGCLVKDYFPEPVTVSWNSGALTSGVHTFPAVLQSSGLYSLSSVVTVPSSSLGTQTYICNVNHKPSNTKVDKKVEPKSCSGGGGSGGGGSGGGGSEVQLLESGGGLVQPGGSLRLSCAVSGIDLSNYAINWVRQAPGKCLEWIGIIWASGTTFYATWAKGRFTISRDSTTVYLQMNSLRAEDTAVYYCARTVPGYSTAPYFDLWGQGTLVTVSSGGGGSGGGGSGGGGSEVQLVESGGGLVQPGGSLRLSCAASGYVFTDYGMNWVRQAPGKGLEWMGWINTYIGEPIYADSVKGRFTFSLDTSKSTAYLQMNSLRAEDTAVYYCARGYRSYAMDYWGQGTLVTVSS
light: DIQMTQSPSSLSASVGDRVTITCRATQSIYNALAWYQQKPGKAPKLLIYNANTLHTGVPSRFSASGSGTDSTLTISSLQPEDFATYYCQQYYDYPLTFGGGTKVEIKRTVAAPSVFIFPPSDEQLKSGTASVVCLLNNFYPREAKVQWKVDNALQSGNSQESVTEQDSKDSTYSLSSTLTLSKADYEKHKVYACEVTHQGLSSPVTKSFNRGECSGGGGSGGGGSGGGGSDIVMTQSPSSVSASVGDRVTITCQSSPSVWSNFLSWYQQKPGKAPKLLIYEASKLTSGVPSRFKGSGSGTDFTLTISSLQPEDFATYYCGGGYSSISDTTFGCGTKVEIKGGGGSGGGGSGGGGSDIQMTQSPSSLSASVGDRVTITCKASQNVGTNVAWYQQKPGKAPKALIYSASFLYSGVPYRFSGSGSGTDFTLTISSLQPEDFATYYCQQYNIYPLTFGQGTKVEIK
notes: Trispecific Fab-Fv-Fv (OX40, HSA, TNF); terminal 870 Fv without a disulfide (-DS read as Fv); HEK293 supernatant; also called A26-645-870-DS; A26Fab-645Fv-652/870Fv
B5: A26Fab 645Fv 1G4S 1189Fv (other)
heavy: EVQLVESGGGLVQPGGSLRLSCAASGFTFTNYGIHWIRQAPGKGLEWVASISPSGGLTYYRDSVKGRFTISRDDAKNSPYLQMNSLRAEDTAVYYCATGGEGIFDYWGQGTLVTVSSASTKGPSVFPLAPSSKSTSGGTAALGCLVKDYFPEPVTVSWNSGALTSGVHTFPAVLQSSGLYSLSSVVTVPSSSLGTQTYICNVNHKPSNTKVDKKVEPKSCSGGGGSGGGGSGGGGSEVQLLESGGGLVQPGGSLRLSCAVSGIDLSNYAINWVRQAPGKCLEWIGIIWASGTTFYATWAKGRFTISRDSTTVYLQMNSLRAEDTAVYYCARTVPGYSTAPYFDLWGQGTLVTVSSGGGGSEVQLVESGGGLVQPGGSLRLSCAASGFTFNDYDMAWVRQAPGKCLEWVASITPSGGGTYYRDSVKGRFTISRDNAKNSLYLQMNSLRAEDTAVYYCARHGYTLDYFEYWGQGTMVTVSS
light: DIQMTQSPSSLSASVGDRVTITCRATQSIYNALAWYQQKPGKAPKLLIYNANTLHTGVPSRFSASGSGTDSTLTISSLQPEDFATYYCQQYYDYPLTFGGGTKVEIKRTVAAPSVFIFPPSDEQLKSGTASVVCLLNNFYPREAKVQWKVDNALQSGNSQESVTEQDSKDSTYSLSSTLTLSKADYEKHKVYACEVTHQGLSSPVTKSFNRGECSGGGGSGGGGSGGGGSDIVMTQSPSSVSASVGDRVTITCQSSPSVWSNFLSWYQQKPGKAPKLLIYEASKLTSGVPSRFKGSGSGTDFTLTISSLQPEDFATYYCGGGYSSISDTTFGCGTKVEIKGGGGSDIQMTQSPSSLSASVGDRVTITCLASEGISNDLAWYQQKPGKAPKLLIYDATRLQDGVPSRFSGSGSGTDFTLTISSLQPEDFATYYCQQSYKYPWTFGCGTKLEIK
notes: Trispecific Fab-Fv-Fv (OX40, HSA, IL-6); second linker 1xG4S; HEK293 supernatant; also called A26Fab-645Fv-1189Fv; FabFvFv

Tests used:
[1] = biological target: T2, IL13 (UniProt P35225 35-146, limits assumed); assay: SPR, Biacore 3000; sample captured by anti-human CH1 antibody, IL13 as analyte
T2 construct: also called IL13 (R&D 213IL)
Protocol: (§1) Covalent immobilisation of the capture antibody was achieved by standard amine coupling chemistry.
(§2) After each cycle, the capture surface was regenerated with 2×1 min injections of 40 mM HCl followed by 30 s of 5 mM NaOH. The flow rates used were 10 μl/min for capture, 30 μl/min for association and dissociation phases, and 10 μl/min for regeneration.
(§3) Kinetic parameters were determined by simultaneous global-fitting of the resulting sensorgrams to a standard 1:1 binding model using Biacore 3000 Evaluation Software v3.2

[2] = biological target: T3, human serum albumin (human, UniProt P02768 25-609); assay: SPR, Biacore 3000; construct captured by anti-human CH1 antibody, 50 nM HSA alone
T3 construct: Bought protein; also called HSA
Protocol: as §1, §2

[3] = biological target: T1, Ox40/mFc; assay: SPR, Biacore 3000; construct captured by anti-human CH1 antibody, 20 nM Ox40/mFc alone
Protocol: as §1, §2

[4] = biological target: T4, TNF (human, UniProt P01375 77-233); assay: SPR, Biacore 3000; sample captured by anti-human CH1 antibody, TNF as analyte
T4 construct: also called TNF (Strathmann hTNFa); hTNFa
Protocol: as §1, §2, §3

[5] = biological target: T3, human serum albumin; assay: SPR, Biacore T100; sample captured by anti-human CH1 antibody, HSA as analyte
Protocol: as §1, §2
A blank flow-cell was used for reference subtraction and buffer-blank injections were included to subtract instrument noise and drift.

[6] = biological target: T5, IL-6 (UniProt P05231 30-212, limits assumed); assay: SPR, Biacore T100; sample captured by anti-human CH1 antibody, IL-6 as analyte
[7] = biological target: T3, human serum albumin; assay: SPR, Biacore T100; sample captured by anti-human CH1 antibody, HSA as analyte, 1:1 fit
Protocol: as §1, §2
Kinetic parameters were determined by simultaneous global-fitting of the resulting sensorgrams to a standard 1:1 binding model using Biacore T100 Evaluation Software v2.0.1.

[8] = biological target: T5, IL-6; assay: SPR, Biacore T100; sample captured by anti-human CH1 antibody, IL-6 as analyte; kinetics not given

| Binder | Affinity (fold loss against the parent) [1] [fold] | Stoichiometry [1] | Response RU [2] [RU] | Response RU [3] [RU] | Affinity (fold loss against the parent) [4] [fold] | Stoichiometry [4] | Stoichiometry [5] | Stoichiometry [6] | Kd [7] [nM] | koff [7] [s⁻¹] | kon [7] [M⁻¹ s⁻¹] | RU of binding [8] [RU] |
| --- | --- | --- | --- | --- | --- | --- | --- | --- | --- | --- | --- | --- |
| B1 | 2 | 0.88 | 11 | 39 | – | – | – | – | – | – | – | – |
| B2 | – | 0.95 | 12 | 42 | – | – | – | – | – | – | – | – |
| B3 | – | – | 10 | 32 | 2 | 0.42 | – | – | – | – | – | – |
| B4 | – | – | 11 | 31 | 2 | 0.39 | – | – | – | – | – | – |
| B5 | – | – | – | – | – | – | 0.39 | 0.06 | 11.3 | 0.000379 | 33400 | 1 |
